Where a chain is given by its changes, count along the chain named. Names may count otherwise. Values belong to the molecule of their own block, whether it stands above or below them.
Columns and labels:
Type in all cases: biochemical
[1] = Kinetic parameters of purified glycosyltransferases for rebaudioside E; settings: for Kcat / Km: substrate RebE, purified enzyme
Experimental: (§1) Activities of glycosyltransferase mutants and a WT glycosyltransferase were determined. A 3 mL catalytic reaction system was prepared from the following components: 1.2 mM rebaudioside E, 2 mM UDPG, 3 mM MgCl2, crude enzyme: 1 mg, and 100 mM potassium phosphate buffer with a pH of 7.2: the balance. A catalytic reaction was conducted on a shaker at 37° C. and 200 rpm, where a sample was collected at 0 min and 30 min. Sample treatment: 500 μL of a sample solution was pipetted and added to an EP tube; the EP tube was placed in boiling water at 95° C. for 15 min to stop a reaction, and then centrifuged in a centrifuge at 12,000 rpm for 1 min; and a resulting supernatant was collected and added to a new EP tube, filtered through an organic filter membrane (0.45 μm), and stored in a liquid-phase sample bottle for high-performance liquid chromatography (HPLC) analysis. Definition of an enzyme activity (U): an enzyme amount required for producing 1 μmol of a product within 1 min is defined as 1 enzyme activity unit.
(§2) A final concentration of rebaudioside E was set to 10 μM to 2,000 μM or a final concentration of rebaudioside D was set to 50 μM to 2,000 μM. Rebaudioside E or rebaudioside D solutions of different concentrations each were mixed with an appropriate amount of each of the purified WT UGT76G1 and the mutant S195Q, and an enzyme activity was determined according to the enzyme activity assay method described above. A Michaelis Menten equation was used to calculate Kn, Vmax, Keat, and Keat/Km of the purified WT glycosyltransferase and the glycosyltransferase mutant.

[2] = Kinetic parameters of purified glycosyltransferases for rebaudioside D; settings: for Kcat / Km: substrate RebD, purified enzyme
Experimental: as §1, §2

[3] = Crude enzyme activity of glycosyltransferase mutants and WT (HPLC); settings: 1.2 mM rebaudioside E, 2 mM UDPG, crude enzyme 1 mg, 37° C., 30 min
Experimental: as §1
The four mutant strains S195Q-StSUS1, L200Y-StSUS1, T284S-StSUS1, and S285W-StSUS1 screened out in the above conversion experiment were used to produce glycosyltransferase mutants, and the glycosyltransferase mutants and the WT glycosyltransferase UGT76G1 were tested for activities. […] Thus, the optimal mutant strain S195Q-StSUS1 was screened out.

[4] = Preliminary screening: conversion of RebD by crude recombinases; settings: 40° C.; for RebD substrate conversion rate relative to UGT76G1-StSUS1: 20 h
Experimental: (§3) Recombinases were prepared with the mutant strains G87D-StSUS1, S147D-StSUS1, S147N-StSUS1, S195Q-StSUS1, L200Y-StSUS1, T284S-StSUS1, S285W-StSUS1, and G378P-StSUS1 and the WT strain UGT76G1-StSUS1, and then used to convert RebE or RebD to preliminarily screen out relatively-preferred mutants.
The conversion of RebD adopted a 3 mL reaction system including: RebD as a substrate: 1 g/L, sucrose: 3 g/L, crude enzyme: 5 mg/mL, and 100 mM potassium phosphate buffer (pH 7.2): the balance. A RebD conversion reaction was conducted on a shaker at 40° C. and 200 rpm for 6 h and 20 h, and corresponding conversion rates were shown in FIG. 2.

[5] = Preliminary screening: conversion of RebE by crude recombinases; settings: 40° C., 12 h; for catalytic activity / conversion rate for RebE (in words): RebE 10 g/L
Experimental: as §3
The conversion of RebE adopted a 3 mL reaction system including. RebE as a substrate: 10 g/L, sucrose: 30 g/L, crude enzyme: 5 mg/mL, and 100 mM potassium phosphate buffer (pH 7.2): the balance. A RebE conversion reaction was conducted on a shaker at 40° C. and 200 rpm for 12 h, and corresponding conversion rates were shown in FIG. 1.

- improvement of affinity compared with the WT glycosyltransferase ([2]; substrate rebaudioside D): 2.2 times
B1: S195Q: UGT76G1 (SEQ ID NO: 1) mutant, position 195 serine to glutamine (protein)
chain: MENKTETTVRRRRRIILFPVPFQGHINPILQLANVLYSKGFSITIFHTNFNKPKTSNYPHFTFRFILDNDPQDERISNLPTHGPLAGMRIPIINEHGADELRRELELLMLASEEDEEVSCLITDALWYFAQSVADSLNLRRLVLMTSSLFNFHAHVSLPQFDELGYLDPDDKTRLEEQASGFPMLKVKDIKSAYQNWQILKEILGKMIKQTKASSGVIWNSFKELEESELETVIREIPAPSFLIPLPKHLTASSSSLLDHDRTVFQWLDQQPPSSVLYVSFGSTSEVDEKDFLEIARGLVDSKQSFLWVVRPGFVKGSTWVEPLPDGFLGERGRIVKWVPQQEVLAHGAIGAFWTHSGWNSTLESVCEGVPMIFSDFGLDQPLNARYMSDVLKVGVYLENGWERGEIANAIRRVMVDEEGEYIRQNARVLKQKADVSLMKGGSSYESLESLVSYISSL
modifications: The sequence is synthetized.
- Kcat [1]: 1.48 ± 0.01 s⁻¹
- Km [1]: 56.3 ± 2.02 µM
- improvement of catalytic efficiency compared with the WT glycosyltransferase ([1]; substrate rebaudioside E): 2.2 times
- Kcat [2]: 0.25 ± 0.004 s⁻¹
- Km [2]: 214 ± 14.5 µM
- improvement of catalytic efficiency compared with the WT glycosyltransferase ([2]; substrate rebaudioside D): 2.8 times
- enzyme activity (in words) [3]: highest enzyme activity
- enzyme activity relative to WT glycosyltransferase UGT76G1 [3]: 1.3 times

B2: L200Y-StSUS1: recombinase (crude enzyme) from E. coli BL21 (DE3) co-expressing mutant L200Y and sucrose synthase StSUS1 (protein)
chain: B1 chain with Q195S, L200Y
- catalytic effect on RebD (in words) ([4]; 6 h): optimal catalytic effect
- RebD substrate conversion rate relative to UGT76G1-StSUS1 [4]: 1.3 times
- RebE conversion rate relative to UGT76G1-StSUS1 [5]: 1.1 times

B3: S195Q-StSUS1: recombinase (crude enzyme) from E. coli BL21 (DE3) co-expressing mutant S195Q and sucrose synthase StSUS1 (protein)
chain: B1 chain
- RebD substrate conversion rate relative to UGT76G1-StSUS1 [4]: 1.3 times
- RebE conversion rate relative to UGT76G1-StSUS1 [5]: 1.1 times

B4: S147D-StSUS1: recombinase (crude enzyme) from E. coli BL21 (DE3) co-expressing mutant S147D and sucrose synthase StSUS1 (protein)
chain: B1 chain with S147D, Q195S
- catalytic activity / conversion rate for RebE (in words) [5]: low conversion rate

B5: S285W-StSUS1: recombinase (crude enzyme) from E. coli BL21 (DE3) co-expressing mutant S285W and sucrose synthase StSUS1 (protein)
chain: B1 chain with Q195S, S285W
- RebE conversion rate relative to UGT76G1-StSUS1 [5]: 1.1 times

B6: L200Y: UGT76G1 (SEQ ID NO: 1) mutant, position 200 leucine to tyrosine (protein)
chain: B1 chain with Q195S, L200Y
modifications: The sequence is synthetized.
- enzyme activity (in words) [3]: low enzyme activity

B7: S147N-StSUS1: recombinase (crude enzyme) from E. coli BL21 (DE3) co-expressing mutant S147N and sucrose synthase StSUS1 (protein)
chain: B1 chain with S147N, Q195S
- catalytic activity / conversion rate for RebE (in words) [5]: basically no catalytic activity

B8: UGT76G1: wild-type Stevia rebaudiana-derived glycosyltransferase, amino acid sequence SEQ ID NO: 1 (protein)
chain: B1 chain with Q195S
modifications: The sequence is synthetized.
- Kcat [1]: 2.00 ± 0.03 s⁻¹
- Km [1]: 170 ± 12.6 µM
- Kcat [2]: 0.20 ± 0.005 s⁻¹
- Km [2]: 478 ± 33 µM

B9: G378P-StSUS1: recombinase (crude enzyme) from E. coli BL21 (DE3) co-expressing mutant G378P and sucrose synthase StSUS1 (protein)
chain: B1 chain with Q195S, G378P
- catalytic activity / conversion rate for RebE (in words) [5]: basically no catalytic activity

B10: T284S-StSUS1: recombinase (crude enzyme) from E. coli BL21 (DE3) co-expressing mutant T284S and sucrose synthase StSUS1 (protein)
chain: B1 chain with Q195S, T284S
- RebE conversion rate relative to UGT76G1-StSUS1 [5]: 1.1 times

From US20240287479A1, “GLYCOSYLTRANSFERASE MUTANT, AND METHOD FOR CATALYTIC SYNTHESIS OF REBAUDIOSIDE M USING GLYCOSYLTRANSFERASE MUTANT” (XINGHUA GL STEVIA CO., LTD, priority 2021, published 2024)
